Reference: patent US20190233519A1

What was measured:
[1] = molecular target: CTLA-4-His protein (UniProt P16410); assay: SPR, antibody captured by Fc, CTLA-4-His as analyte
[2] = molecular target: biotin-labeled hCTLA-4/Fc protein (UniProt P16410); assay: FACS competition, biotin hCTLA-4-Fc on CHO cells expressing human B7-1
biotin-labeled hCTLA-4/Fc protein, sequence (P16410 37-161): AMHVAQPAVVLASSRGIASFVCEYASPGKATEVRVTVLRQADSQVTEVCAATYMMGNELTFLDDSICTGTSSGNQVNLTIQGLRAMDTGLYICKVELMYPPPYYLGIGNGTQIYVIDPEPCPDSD

CTLA-4-His protein, sequence (P16410 37-161 limits assumed): as the sequence (P16410 37-161) above

- Kd [1]: 17.3 nM
- IC50 [2]: 8.5 nM
Substance: ipilimumab (YERVOY®) (antibody)
